{"source": "patent US10851152B2", "about": "“Polymerized peptide and gel having collagen-like structure” (WASEDA UNIVERSITY, priority 2015, dated 2020)", "key": {"MDA-MB-231": {"system": "MDA-MB-231", "assay": "Cell adhesion assay on coated 96-well plate, MDA-MB-231", "format": "cell-based, Human", "settings": "mixed polymerized peptide of YCC2 and YCC2-GFOGER; MDA-MB-231, 180 min", "description": "D-MEM High Glucose, D-MEM Low Glucose and 0.5% trypsin/EDTA were purchased from Wako Pure Chemical Industries, Ltd. (Osaka); FBS, penicillin. streptomycin (100×) were purchased from Invitrogen (Thermo Fisher Scientific corporation). Human mammary gland cancer (MDA-MB-231) was purchased from ATCC; Human skin fibroblasts (HDF) were purchased from Cell Applications. MDA-MB-231 was cultured using DMEM High Glucose (10% FBS, 100 Units/ml penicillin, 100 μg/ml streptomycin), and then maintained; and HDF was cultured using DMEM Low Glucose (10% FBS, 100 Units/ml penicillin, 100 μg/ml streptomycin), and then maintained. When used in cell adhesion assay and Western blotting, the cells were treated with 0.05% trypsin/EDTA, and then collected in a 15 ml tube to be subjected to centrifugal treatment at 1,200 rpm for four minutes. After the removal of the supernatant, the cells were suspended with an incubation medium by which the cells were incubated at 37° C. for 20 to 30 min and then recovered. Such cell suspension was used for cell adhesion assay and Western blotting.\nType I collagen (KOKEN CO., LTD, Tokyo) and BSA (Jackson Immuno Research Laboratories Inc., USA), in an aqueous solution as 30 μg/ml, were added to a 96-well plate (Nunc MicroWell 96-Well Microplates) by an amount of 50 μl/well, followed by drying the sample for two nights. Collagen-like peptides having no Cys residue were prepared as aqueous solutions of 1 to 3 mg/ml, and then heated at 95° C. for 5 min, followed by storing them at 4° C. overnight to form the triple-helical structure. Then, they were diluted to 30 μg/ml, and then added to a 96-well plate in an amount of 50 μl/well followed by drying them for two nights. Collagen-like peptides having Cys residues were dissolved in a degassed 0.05% (v/v) TFA aqueous solution, followed by preparing to a concentration of 300 μg/ml, and then heating the sample at 80° C. for 5 min. […] Further, a mineral oil was layered on the peptide solution, and such peptide solution was then oxidized at room temperature until thiol could no longer be detected by Ellman's test. […]"}, "[1]": {"assay": "Hydrogel stability to reduction treatment (DTT) or water with pipetting", "format": "physicochemical", "settings": "water added instead of reducing solution; pipetting about 90 times/min", "description": "There, verification was made on whether gel caused a collapse by breaking the disulfide cross-linking by a reduction treatment. A reducing solution of 100 μl (100 mM DTT, 50 mM phosphate buffer solution (pH 8.4)) or water was added to the hydrogel (30 μl) prepared. […] Then, pipetting procedure was respectively performed at a frequency of about 90 times/min and a volume of 100 μl/each time, using a yellow tip (up to 200 μl)."}, "[2]": {"assay": "Hydrogel formation judged by holding of a stainless ball", "format": "physicochemical", "design": "key to gel formation, Time (hour) 9 / gel formation, Time (hour) 12 / gel formation, Time (hour) 15 / gel formation, Time (hour) 24 / gel formation, Time (hour) 32 / gel formation, Time (hour) 74 / gel formation, Peptide concentration 0.1% (w/v) / gel formation, Peptide concentration 0.2% (w/v) / gel formation, Peptide concentration 0.3% (w/v) / gel formation, Peptide concentration 0.5% (w/v) / gel formation, Peptide concentration 0.7% (w/v) / gel formation, Peptide concentration 1.0% (w/v): ◯: Gelated; X: Failed to gelate", "settings": "for gel-forming capability / gel formation, Time (hour) 9 / gel formation, Time (hour) 12 / gel formation, Time (hour) 15 / gel formation, Time (hour) 24 / gel formation, Time (hour) 32 / gel formation, Time (hour) 74: 1% (w/v) peptide; for gel-forming capability: 10% DMSO, up to three days; for gel formation, Time (hour) 9: 9 hour; for gel formation, Time (hour) 12: 12 hour; for gel formation, Time (hour) 15: 15 hour; for gel formation, Time (hour) 24: 24 hour; for gel formation, Time (hour) 32: 32 hour; for gel formation, Time (hour) 74: 74 hour", "description": "Degassed water was used to prepare a peptide solution having a concentration of 1.11% (w/v) or 1.66% (w/v), and the solution was then put into a PCR tube. After heating this solution at 80° C. for 5 min using a polymerase chain reaction (PCR) machine (TaKaRa PCR Thermal Cycler, TAKARA BIO INC.), the solution was then left to stand at 4° C. overnight. By adding DMSO and water to this solution, there was prepared a peptide solution having a concentration of 10% DMSO, 0.1 to 1.5% (w/v). The PCR tube was then filled with a mineral oil in a way such that the mineral oil covered the liquid surface, followed by allowing the solution to stand at room temperature for a given period of time to achieve a gel. Then, gel formation was determined by looking at whether a stainless ball could be held by the gel."}, "[3]": {"assay": "Remaining thiol group (Ellman's reagent) in oxidative polymerization reaction", "format": "physicochemical", "settings": "10% DMSO, peptide 1% (w/v)", "description": "Degassed water was used to prepare a peptide solution having a concentration of 1.11% (w/v), and the solution was then put into a PCR tube. After heating this solution at 80° C. for 5 min, it was then left to sand still at 4° C. overnight. By adding DMSO to this solution, there was prepared a peptide solution having a final concentration of 10% DMSO, peptide 1% (w/v). The PCR tube was then filled with a mineral oil in a way such that the mineral oil covered the surface of the solution. In every measurement, the mineral oil was eliminated from the peptide solution to prepare a peptide solution for oxidation monitoring. Ellman's reagent was prepared in a way such that 9 mg/ml of DTNB was present in 50 mM of a phosphate buffer solution (pH 8.4). 33 mM phosphate buffer solution (pH 8.4) and Ellman's reagent 1.5 mg/ml were left to stand for […], then a light absorbance was then measured after a solution with a final concentration of peptide 0.167 mg/ml. Recorded were changes in absorbance with time, with a moment when DMSO was added being a starting point (0 hour). Since the Ellman's reagent generates 5-mercapto-2-nitrobenzoate (λ max=412 nm, ε=1.55×10^4) depending on the amount of thiol groups (referred to as “SH groups” hereunder) in the peptide, measured was a absorbance at 412 nm. After the measurement, optical path length was compensated by measuring absorbance at 997 nm and 900 nm."}, "[4]": {"settings": "oxidizing conditions: room temperature, three days"}}, "note": "Non-standard residues stand in square brackets, D forms with d. No end group written: not given here. Hyp = O=C(O)[C@@H]1C[C@@H](O)CN1", "data": [{"substance": "YCC(POG)5FOGERG(POG)5CCY (YCCP[Hyp]GP[Hyp]GP[Hyp]GP[Hyp]GP[Hyp]GF[Hyp]GERGP[Hyp]GP[Hyp]GP[Hyp]GP[Hyp]GP[Hyp]GCCY; not fully specified; cysteine pairing not given here) [YCC2-GFOGER]", "values": [{"measurement": "content of YCC2-GFOGER giving the same level of cell adhesion capability as collagen", "setting": "MDA-MB-231", "result": 30, "unit": "%"}]}, {"substance": "YCC(POG)6PRG(POG)5CCY (YCCPPGPPGPPGPPGPPGPPGPRGPPGPPGPPGPPGPPGCCY; not fully specified; hydroxyproline; MOD_RES (5)..(5) 4-Hydroxyproline; MOD_RES (8)..(8) 4-Hydroxyproline; MOD_RES (11)..(11) 4-Hydroxyproline; MOD_RES (14)..(14) 4-Hydroxyproline; MOD_RES (17)..(17) 4-Hydroxyproline; MOD_RES (20)..(20) 4-Hydroxyproline; MOD_RES (26)..(26) 4-Hydroxyproline; MOD_RES (29)..(29) 4-Hydroxyproline; MOD_RES (32)..(32) 4-Hydroxyproline; MOD_RES (35)..(35) 4-Hydroxyproline; MOD_RES (38)..(38) 4-Hydroxyprolin) [YCC2]", "values": [{"measurement": "gel collapse on adding water", "setting": "[1]", "result": "gel collapse was observed"}, {"measurement": "gel-forming capability", "setting": "[2]; room temperature", "result": "capable of turning into gels"}, {"measurement": "gel formation, Time (hour) 9", "setting": "[2]", "result": "X"}, {"measurement": "gel formation, Time (hour) 12", "setting": "[2]", "result": "X"}, {"measurement": "gel formation, Time (hour) 15", "setting": "[2]", "result": "X"}, {"measurement": "gel formation, Time (hour) 24", "setting": "[2]", "result": "X"}, {"measurement": "gel formation, Time (hour) 32", "setting": "[2]", "result": "X"}, {"measurement": "gel formation, Time (hour) 74", "setting": "[2]", "result": "◯"}, {"measurement": "gel formation, Peptide concentration 0.3% (w/v)", "setting": "[2]; [4]", "result": "X"}, {"measurement": "gel formation, Peptide concentration 0.5% (w/v)", "setting": "[2]; [4]", "result": "X"}, {"measurement": "gel formation, Peptide concentration 0.7% (w/v)", "setting": "[2]; [4]", "result": "X"}, {"measurement": "gel formation, Peptide concentration 1.0% (w/v)", "setting": "[2]; [4]", "result": "◯"}, {"measurement": "time in which peptide turned into a gel", "setting": "[3]", "result": 74, "unit": "h"}]}, {"substance": "CCCC(POG)6PRG(POG)5CCGC [CCCC2]", "values": [{"measurement": "gel collapse on adding water", "setting": "[1]", "result": "gel collapse was not observed"}, {"measurement": "gel-forming capability", "setting": "[2]; room temperature", "result": "capable of turning into gels"}, {"measurement": "gel formation, Time (hour) 9", "setting": "[2]", "result": "X"}, {"measurement": "gel formation, Time (hour) 12", "setting": "[2]", "result": "◯"}, {"measurement": "gel formation, Time (hour) 15", "setting": "[2]", "result": "◯"}, {"measurement": "gel formation, Time (hour) 24", "setting": "[2]", "result": "◯"}, {"measurement": "gel formation, Time (hour) 32", "setting": "[2]", "result": "◯"}, {"measurement": "gel formation, Time (hour) 74", "setting": "[2]", "result": "◯"}, {"measurement": "gel formation, Peptide concentration 0.1% (w/v)", "setting": "[2]; oxidizing conditions: room temperature, three days, 0.1% (w/v)", "result": "X"}, {"measurement": "gel formation, Peptide concentration 0.2% (w/v)", "setting": "[2]; oxidizing conditions: room temperature, three days, 0.2% (w/v)", "result": "X"}, {"measurement": "gel formation, Peptide concentration 0.3% (w/v)", "setting": "[2]; [4]", "result": "◯"}, {"measurement": "gel formation, Peptide concentration 0.5% (w/v)", "setting": "[2]; [4]", "result": "◯"}, {"measurement": "gel formation, Peptide concentration 0.7% (w/v)", "setting": "[2]; [4]", "result": "◯"}, {"measurement": "gel formation, Peptide concentration 1.0% (w/v)", "setting": "[2]; [4]", "result": "◯"}, {"measurement": "concentration at which peptide still turned into a gel", "setting": "[2]; room temperature, three days", "result": "0.3 % (w/v)"}, {"measurement": "time in which peptide turned into a gel", "setting": "[3]", "result": 12, "unit": "h"}]}, {"substance": "(POG)6PRG(POG)5CC (PPGPPGPPGPPGPPGPPGPRGPPGPPGPPGPPGPPGCC; not fully specified; hydroxyproline; MOD_RES (2)..(2) 4-Hydroxyproline; MOD_RES (5)..(5) 4-Hydroxyproline; MOD_RES (8)..(8) 4-Hydroxyproline; MOD_RES (11)..(11) 4-Hydroxyproline; MOD_RES (14)..(14) 4-Hydroxyproline; MOD_RES (17)..(17) 4-Hydroxyproline; MOD_RES (23)..(23) 4-Hydroxyproline; MOD_RES (26)..(26) 4-Hydroxyproline; MOD_RES (29)..(29) 4-Hydroxyproline; MOD_RES (32)..(32) 4-Hydroxyproline; MOD_RES (35)..(35) 4-Hydroxyproline) [CC1]", "values": [{"measurement": "gel-forming capability", "setting": "[2]; room temperature", "result": "did not turn into a gel"}, {"measurement": "ratio of SH amount", "setting": "[3]; SH amount at 0 hour being 100%, 74 hours", "result": "approximately 0%"}]}, {"substance": "CCC(POG)6PRG(POG)5CCC (CCCPPGPPGPPGPPGPPGPPGPRGPPGPPGPPGPPGPPGCCC; not fully specified; hydroxyproline; MOD_RES (5)..(5) 4-Hydroxyproline; MOD_RES (8)..(8) 4-Hydroxyproline; MOD_RES (11)..(11) 4-Hydroxyproline; MOD_RES (14)..(14) 4-Hydroxyproline; MOD_RES (17)..(17) 4-Hydroxyproline; MOD_RES (20)..(20) 4-Hydroxyproline; MOD_RES (26)..(26) 4-Hydroxyproline; MOD_RES (29)..(29) 4-Hydroxyproline; MOD_RES (32)..(32) 4-Hydroxyproline; MOD_RES (35)..(35) 4-Hydroxyproline; MOD_RES (38)..(38) 4-Hydroxyprolin) [CCC2]", "values": [{"measurement": "gel collapse on adding water", "setting": "[1]", "result": "gel collapse was not observed"}, {"measurement": "gel-forming capability", "setting": "[2]; room temperature", "result": "capable of turning into gels"}, {"measurement": "gel formation, Time (hour) 9", "setting": "[2]", "result": "X"}, {"measurement": "gel formation, Time (hour) 12", "setting": "[2]", "result": "X"}, {"measurement": "gel formation, Time (hour) 15", "setting": "[2]", "result": "X"}, {"measurement": "gel formation, Time (hour) 24", "setting": "[2]", "result": "◯"}, {"measurement": "gel formation, Time (hour) 32", "setting": "[2]", "result": "◯"}, {"measurement": "gel formation, Time (hour) 74", "setting": "[2]", "result": "◯"}, {"measurement": "gel formation, Peptide concentration 0.3% (w/v)", "setting": "[2]; [4]", "result": "X"}, {"measurement": "gel formation, Peptide concentration 0.5% (w/v)", "setting": "[2]; [4]", "result": "◯"}, {"measurement": "gel formation, Peptide concentration 0.7% (w/v)", "setting": "[2]; [4]", "result": "◯"}, {"measurement": "gel formation, Peptide concentration 1.0% (w/v)", "setting": "[2]; [4]", "result": "◯"}, {"measurement": "time in which peptide turned into a gel", "setting": "[3]", "result": 24, "unit": "h"}]}]}
